# Assay results taken from patent publication US20260008815A1, “CYCLIC PEPTIDE OR SALT THEREOF, AND USES THEREOF” (FUJIFILM Corporation, priority 2023, published 2026).
# Numbered stars: 1 amine (or outer) side, 2 acyl side, 3 side chain; on linkers, the order of the positions; unused ones are H or OH. Bridge positions count the residues as written; N and C are the ends. Square brackets hold non-standard residues; d marks the D form. Primed or numbered codes have the meaning given here. Ends that are not written are not given here. acetyl″ = bridging -C(=O)-CH2- from a haloacetyl (chloroacetyl) group on the side-chain amine of K/Orn/Dab/Dap, the thiol sulfur replaces the halogen on its CH2 (X(acetyl) notation); acetyl = acetyl (haloacetyl before ring closure) on the side-chain amine, O=C(C[*:1])[*:2]; COCH2 = acetyl group that carries the bridge; hCys = N[C@@H](CCS)C(=O)O
# Molecular target: T1, Recombinant Human FGFR2 alpha (IIIc) Fc Chimera Protein (Homo sapiens, UniProt P21802)
# T1 construct: Fc (chimera); purchased R&D systems 712-FR-050
# Test: ELISA binding affinity of enzymatically synthesized peptide to FGFR
# Details: ELISA luminescence signal at 10 nmol/L peptide, SEQ ID NO: 47 at 10 nmol/L standardized to 1; enzyme synthesis product
# Outline: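 FGFR2 alpha (IIIc) Fc chimera (5 ng/well) was immobilized, and Myc-tagged peptide was bound 3 h at room temperature, then detected with anti-Myc antibody (2 h) and chemiluminescent substrate. Signal was corrected against FGFR-free wells. Score A–D was the luminescence at 10 nmol/L peptide, normalized to cyclic peptide SEQ ID NO: 47.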
# T1 sequence (P21802 with tags, fused parts or gaps limits assumed): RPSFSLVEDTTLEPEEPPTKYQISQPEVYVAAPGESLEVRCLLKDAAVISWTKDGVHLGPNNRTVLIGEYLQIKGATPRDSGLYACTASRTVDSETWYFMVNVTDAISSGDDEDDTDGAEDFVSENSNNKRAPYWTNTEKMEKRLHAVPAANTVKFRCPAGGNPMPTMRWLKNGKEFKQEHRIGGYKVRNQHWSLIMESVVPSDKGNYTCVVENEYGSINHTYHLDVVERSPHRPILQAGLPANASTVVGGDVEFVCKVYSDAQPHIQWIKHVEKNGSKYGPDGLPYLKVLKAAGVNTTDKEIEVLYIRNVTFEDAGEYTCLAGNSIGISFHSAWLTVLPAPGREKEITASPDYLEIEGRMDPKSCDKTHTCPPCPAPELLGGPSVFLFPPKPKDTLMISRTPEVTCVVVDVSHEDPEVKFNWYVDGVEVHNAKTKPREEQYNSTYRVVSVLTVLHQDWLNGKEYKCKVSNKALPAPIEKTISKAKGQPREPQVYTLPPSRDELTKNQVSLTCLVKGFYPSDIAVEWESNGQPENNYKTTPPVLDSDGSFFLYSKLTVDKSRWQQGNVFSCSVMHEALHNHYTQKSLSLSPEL
row,Molecule,Evaluation result of binding affinity to FGFR
1,413 (QCDQDAIQWVYDLQYYRVWHKV; Description of Artificial Sequence: Cyclic peptide) [compound 413],C (0.1 or more and less than 0.5)
2,414 (YCNYEWDGARRQIAYYRIFLKL; Description of Artificial Sequence: Cyclic peptide) [compound 414],C (0.1 or more and less than 0.5)
3,415 (YCDWVEVANARQLAYYTLYRKK; Description of Artificial Sequence: Cyclic peptide) [compound 415],C (0.1 or more and less than 0.5)
4,416 (LCTQFPASQRYYFALYRLWHKS; Description of Artificial Sequence: Cyclic peptide) [compound 416],C (0.1 or more and less than 0.5)
5,417 (LCQIYLYLTALQQGFEDFYPK(COCH2)N; thioether 2-21 via acetyl) [compound 417],C (0.1 or more and less than 0.5)
6,418 (DCLRQQVYQYLYILFQNDIAK(COCH2)D; thioether 2-21 via acetyl) [compound 418],C (0.1 or more and less than 0.5)
7,419 (DCHTREDWQIHHLYQLLYQLK(COCH2)Y; thioether 2-21 via acetyl) [compound 419],C (0.1 or more and less than 0.5)
8,420 (YCEAQPYYFQLYRLWHRQEK(COCH2)P; thioether 2-20 via acetyl) [compound 420],C (0.1 or more and less than 0.5)
9,421 (VCLDEQQALFHQYYRITRRK(COCH2)V; thioether 2-20 via acetyl) [compound 421],C (0.1 or more and less than 0.5)
10,422 (YCTQEQAFRQLAYYQIFRRSK(COCH2)S; thioether 2-21 via acetyl) [compound 422],C (0.1 or more and less than 0.5)
11,423 (WCFTEGIQSTVQLTYSYLYK(COCH2)L; thioether 2-20 via acetyl) [compound 423],C (0.1 or more and less than 0.5)
12,424 (VCTQPQQDFELIYQYLYQLAK(COCH2)Q; thioether 2-21 via acetyl) [compound 424],C (0.1 or more and less than 0.5)
13,425 (GCGYTQLHYQHLFAWLHARK(COCH2)V; thioether 2-20 via acetyl) [compound 425],C (0.1 or more and less than 0.5)
14,426 (PCDPLNLQQWYTAVYQLWHK(COCH2)R; thioether 2-20 via acetyl) [compound 426],C (0.1 or more and less than 0.5)
15,427 (ECDTADYPQEWIQDVYQYLYK(COCH2)R; thioether 2-21 via acetyl) [compound 427],C (0.1 or more and less than 0.5)
16,428 (ECDQAQQVYALIYRYLYQLQK(COCH2)V; thioether 2-21 via acetyl) [compound 428],C (0.1 or more and less than 0.5)
17,429 (YCHENYLDPEQYQYFHYFK(COCH2); thioether 2-19 via acetyl) [compound 429],C (0.1 or more and less than 0.5)
18,430 (CHENYLDPEQYQYFHYFK(COCH2)Y; thioether 1-18 via acetyl) [compound 430],A (0.7 or more)
19,431 (CHENYLDPEQYQYFHYFK(COCH2); thioether 1-18 via acetyl) [compound 431],C (0.1 or more and less than 0.5)
20,432 (CENYLDPEQYQYFHYFK(COCH2)Y; thioether 1-17 via acetyl) [compound 432],C (0.1 or more and less than 0.5)

# Molecular target: T2, Recombinant Human FGFR2 alpha (IIIc) Fc Chimera Protein, CF (R&D systems, 712-FR-050) (human, UniProt P21802 22-377)
# T2 construct: bought; not shown: Fc part of the chimera
# Test: SPR, 10 nmol/L peptide over immobilized FGFR2-Fc
# Details: not given
# Protocol: A CM5 sensor chip (Cytiva, 29149603) was set in Biacore-T200 (manufactured by Cytiva) which is a surface plasmon resonance device, and an HBS-EP buffer (Cytiva, BR100826) was added as a running buffer at a flow rate of 10 μL/min to equilibrate the flow channel. Next, 70 μL of a mixed aqueous solution of 0.2 mol/L 1-(3-dimethylaminopropyl)-3-ethylcarbodiimide (EDC) and 0.05 mol/L N-hydroxysuccinimide (NHS) was added to activate the sensor chip. Then, Recombinant Human FGFR2 alpha (IIIc) Fc Chimera Protein CF (R&D systems, 712-FR-050) prepared at 50 nmol/L in an Acetate 4.5 buffer (Cytiva, BR100350) was added thereto to perform immobilization at about 5000 RU. Thereafter, the blocking treatment was performed with an ethanolamine solution. In addition, in another flow channel of the same sensor chip, blocking treatment was performed immediately after activation without immobilizing FGFR.
# A cyclic peptide diluted to 10 nmol/L using HBS-EP was added to each flow channel of the FGFR-immobilized sensor chip produced above at 25° C. for 10 minutes, then HBS-EP was allowed to flow as a running buffer for 30 minutes, and the binding of the cyclic peptide to FGFR was measured. Thereafter, a regeneration treatment of removing the bound cyclic peptide was performed by repeating the flow of a regeneration liquid in which sodium chloride powder was dissolved in Glysine 1.5 (Cytiva, BR100354) to a final concentration of 0.15 mol/L for 1 minute in each flow channel twice. The binding amount of the cyclic peptide was evaluated from the difference between the measured value of Biacore-T200 in the flow channel in which FGFR was immobilized and the measured value of Biacore-T200 in the flow channel in which FGFR was not immobilated, in a case where a 10 nmol/L cyclic peptide was allowed to flow.
# T2 sequence (P21802 22-377, change not shown): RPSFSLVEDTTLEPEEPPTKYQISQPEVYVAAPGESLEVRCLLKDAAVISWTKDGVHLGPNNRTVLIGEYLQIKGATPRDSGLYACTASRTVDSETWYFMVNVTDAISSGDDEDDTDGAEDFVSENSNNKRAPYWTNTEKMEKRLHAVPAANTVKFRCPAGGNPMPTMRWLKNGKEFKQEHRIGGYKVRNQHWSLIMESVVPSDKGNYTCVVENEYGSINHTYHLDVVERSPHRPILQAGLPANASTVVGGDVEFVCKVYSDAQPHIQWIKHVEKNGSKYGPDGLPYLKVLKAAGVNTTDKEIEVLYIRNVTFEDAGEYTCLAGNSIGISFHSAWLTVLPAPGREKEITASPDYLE
row,Molecule,"binding amount (SPR, cyclic peptide molecules bound per FGFR molecule at 10 nmol/L peptide)"
1,"YKEENYLDPEQYQYFIYFXYKKK (thioether ring (K(acetyl))-(Hcy), chemically synthesized) [cyclic peptide SEQ ID NO: 446]",≥ 0.7 moleculesofthecyclicpeptide/onemoleculeoffgfr
2,"YXHENYLDPEQYQYFHYFKKKK (thioether ring (Hcy)-(K(acetyl)), chemically synthesized) [cyclic peptide SEQ ID NO: 453]",0.1 to 0.5 moleculesofthecyclicpeptide/onemoleculeoffgfr
3,"XHENYLDPEQYQYFHYFKYKKK (thioether ring (Hcy)-(K(acetyl)), chemically synthesized) [cyclic peptide SEQ ID NO: 454]",0.1 to 0.5 moleculesofthecyclicpeptide/onemoleculeoffgfr
4,"Y[hCys]EENYLDPEQYQYFIYFK(COCH2)YKKK (thioether 2-19 via acetyl″, chemically synthesized) [cyclic peptide SEQ ID NO: 442]",≥ 0.7 moleculesofthecyclicpeptide/onemoleculeoffgfr
5,"YXHENYLDPEQYQYFHYFKYKKK (thioether ring (Hcy)-(K(acetyl)), chemically synthesized) [cyclic peptide SEQ ID NO: 452]",≥ 0.7 moleculesofthecyclicpeptide/onemoleculeoffgfr
6,"Q[hCys]PQNFINPVQWRYFQHYK(COCH2)NKKK (thioether 2-19 via acetyl″, chemically synthesized) [cyclic peptide SEQ ID NO: 433]",≥ 0.7 moleculesofthecyclicpeptide/onemoleculeoffgfr
7,"YXEENYLDPEQYQYFIYFXYKKK (not fully specified; thioether ring (Dap(acetyl))-(Hcy), chemically synthesized) [cyclic peptide SEQ ID NO: 449]",≥ 0.7 moleculesofthecyclicpeptide/onemoleculeoffgfr
8,"QXPQNFINPVQWRYFQHYXNKKK (not fully specified; thioether ring (Orn(acetyl))-(Hcy), chemically synthesized) [cyclic peptide SEQ ID NO: 439]",≥ 0.7 moleculesofthecyclicpeptide/onemoleculeoffgfr
9,"YCEENYLDPEQYQYFIYFCYKKK (disulfide 2-19 (inferred), chemically synthesized) [cyclic peptide SEQ ID NO: 451]",< 0.1 moleculesofthecyclicpeptide/onemoleculeoffgfr
10,"YXEENYLDPEQYQYFIYFXYKKK (not fully specified; thioether ring (Hcy)-(Dab(acetyl)), chemically synthesized) [cyclic peptide SEQ ID NO: 444]",0.5 to 0.7 moleculesofthecyclicpeptide/onemoleculeoffgfr
11,"QXPQNFINPVQWRYFQHYXNKKK (not fully specified; thioether ring (Dap(acetyl))-(Hcy), chemically synthesized) [cyclic peptide SEQ ID NO: 441]",≥ 0.7 moleculesofthecyclicpeptide/onemoleculeoffgfr
12,"YXEENYLDPEQYQYFIYFXYKKK (not fully specified; thioether ring (Orn(acetyl))-(Hcy), chemically synthesized) [cyclic peptide SEQ ID NO: 447]",≥ 0.7 moleculesofthecyclicpeptide/onemoleculeoffgfr
13,"QXPQNFINPVQWRYFQHYXNKKK (not fully specified; thioether ring (Dab(acetyl))-(Hcy), chemically synthesized) [cyclic peptide SEQ ID NO: 440]",≥ 0.7 moleculesofthecyclicpeptide/onemoleculeoffgfr
14,"QK(COCH2)PQNFINPVQWRYFQHY[hCys]NKKK (thioether 2-19 via acetyl″, chemically synthesized) [cyclic peptide SEQ ID NO: 438]",≥ 0.7 moleculesofthecyclicpeptide/onemoleculeoffgfr
15,"QK(COCH2)PQNFINPVQWRYFQHY[hCys]NKKK (thioether 2-19 via acetyl″, chemically synthesized) [cyclic peptide SEQ ID NO: 437]",≥ 0.7 moleculesofthecyclicpeptide/onemoleculeoffgfr
16,"QXPQNFINPVQWRYFQHYXNKKK (not fully specified; thioether ring (Hcy)-(Dab(acetyl)), chemically synthesized) [cyclic peptide SEQ ID NO: 435]",≥ 0.7 moleculesofthecyclicpeptide/onemoleculeoffgfr
17,"YXEENYLDPEQYQYFIYFXYKKK (not fully specified; thioether ring (Dab(acetyl))-(Hcy), chemically synthesized) [cyclic peptide SEQ ID NO: 448]",≥ 0.7 moleculesofthecyclicpeptide/onemoleculeoffgfr
18,"QXPQNFINPVQWRYFQHYXNKKK (not fully specified; thioether ring (Hcy)-(Orn(acetyl)), chemically synthesized) [cyclic peptide SEQ ID NO: 434]",≥ 0.7 moleculesofthecyclicpeptide/onemoleculeoffgfr
19,"YXEENYLDPEQYQYFIYFXYKKK (not fully specified; thioether ring (Hcy)-(Orn(acetyl)), chemically synthesized) [cyclic peptide SEQ ID NO: 443]",≥ 0.7 moleculesofthecyclicpeptide/onemoleculeoffgfr
